The results in this text go back to patent US20090297501A1.

The target of this assay is monkey Mpl (monkey).

For the substance hTPO (ligand), the EC50 (read off the curve) (growth of BaF3-monkey Mpl cells, WST-8) [B] stood at 0.01 nM.
